{"source": "a protein production outcome set (Wang et al. 2014)", "test": "label from the status in PepcDB records"}
{"sequence": "RDLDAVLQAIVQRARSLLGTDVAYLTLHDEAEGDTYMRVTEGSVAARFQQLRLGMGEGLGGLVAQTARPYVTPDYFNDERFQHTRVIDGGVRDEGLVAILGVPLMIGPQVIGVLFAADRRARVFEREQIALLGSFAALAAAAIDTANLLTETRSALDRLARANEIIRDRSGVIERASDVHDRLAELVLRGG", "values": [{"measurement": "protein production", "result": "failed"}]}
{"sequence": "MLSIIIPVYNEKGNILELTSRIKSALKNNEYEIVFVDDSTDETPKIIESLALKYNNIRLKHRKGKKGLSSAVIDGFKLARGDVLSVMDGDLQHPPEMLESMLFQMKKDTDIVICSRFVLGGKEEGLNIFRKFASFIARLIGKIFLKPLRKISDPTAGFFMLKRKVIKNRDLRAIGWKILIEILVMGDYKRVVELPYSFKRRKHEKSKFTISVQGQYLKQIVSLFIRSKKYNIKLEHHHHHH", "values": [{"measurement": "protein production", "result": "not failed"}]}
{"sequence": "MSSSTGALHWQTAQAALARRDLGVAGSALQALLEVEPTHVSARVLLAGTVLANGRMREAVAQLQLAARDVDDDVAMRCRVAQALLRVGAHRQLHALLRHPSVMQCRDGATLALLAHVHQSLGEHVDALAMMQRAQVCGFDGPDFRFFLAVQLQFNGRLDDAAQALEQTLALVPGYGRAALTRARLRRQTVSSNHVDQLRQQLQRSKPDSEDRAGLAFALYKELEDLGDTDAAWDALQHGNAVMHARLRHDADAEASLYARLGTLAEQGVFAAQASDADAVALQGPQPIFVLGLPRSGTTVLERMLGNHSQIVSAGELNDFGHQLRWGADQAGRSLLDAGLLQAFPTLDYTQIGARYLEQTQWRAGPARWYIDKLPANAVAIGAIARALPGALIVHLVREPMAVCFSNYRALFGDSYAYSYDVHTLARHYQAYHGLMAQWRAALPGRVIDVDYTQMVRDPSTVLQQLMARCGLDIEPGQSDITRNAAASATLSSVQVREGVHSRNVEHWRRYAMQLEPLRQALAEAGLIDAGLH", "values": [{"measurement": "protein production", "result": "failed"}]}
{"sequence": "MTKVIAITGKGGTGKTAVAALLIRSLSKKGQFILAVDADADTNLPETLGCENVKTIGDAKEFLQAEITKPRPDNPDMNKESVLQSKVYEIIEEMPGYDLLVMGRPEGSGCYCYVNNLLRGIMDKLVKNYDLVVIDAEAGLEHFSRKIIRDIDDLIVVTDASRRGFRTAERIHELVNELESNIGSIHVIANKVTDANREKLVKLAEELKLNLIGMIPLDPKIEEMDIKGIPLFEIPDDSVAAVEIENIVKKLGF", "values": [{"measurement": "protein production", "result": "failed"}]}
{"sequence": "MARPRDRQKLDAVKVVETLDNLHARVSERFPASGLAMVCARLADTGRQTAARARRIGRPYLLLRALVVLIIVGGVALEFALAWRLDWSAALRAREGFDLAQGLEAAINLALLSGAAAWFLSSLERRWKQQRVQVALHELRSFCHVIDMHQLTKDPSVILGPRTRHSPPREMSNFQLSRYLDYCAEMLALTAKLAALYAGETDDPVIIAAVNDIETLASDLGRKIWQKIMILGQLNEAAAAQA", "values": [{"measurement": "protein production", "result": "failed"}]}
{"sequence": "MKTVVIGAGLGGLLSAARLSKAGHEVEVFERLPITGGRFTNLSYKGFQLSSGAFHMLPNGPGGPLACFLKEVEASVNIVRSEMTTVRVPLKKGNPDYVKGFKDISFNDFPSLLSYKDRMKIALLIVSTRKNRPSGSSLQAWIKSQVSDEWLIKFADSFCGWALSLKSDEVPVEEVFEIIENMYRFGGTGIPEGGCKGIIDALETVISANGGKIHTGQEVSKILIENGKAAGIIADDRIHDADLVISNLGHAATAVLCSEALSKEADAAYFKMVGTLQPSAGIKICLAADEPLVGHTGVLLTPYTRRINGVNEVTQADPELAPPGKHLTMCHQYVAPENVKNLESEIEMGLEDLKEIFPGKRYEVLLIQSYHDEWPVNRAASGTDPGNETPFSGLYVVGDGAKGKGGIEVEGVALGVMSVMEKVLGLEHHHHHH", "values": [{"measurement": "protein production", "result": "not failed"}]}
{"sequence": "MIGLSKSRGALSMENQKMPEYETIRAAVAGEKWAVEKVVECYKDEIDRLSTVAVRQPDGSTKQEINEDMRQSITKKLIEALPQFPLEEMEKGNVRLEHHHHHH", "values": [{"measurement": "protein production", "result": "not failed"}]}
{"sequence": "TGDASKCLATGPGIASTVKTGEEVGFVVDAKTAGKGKVTCTVLTPDGTEAEADVIENEDGTYDIFYTAAKPGTYVIYVRFGGVDIPNSPFTVMATDGEVTAVEEAPVNACP", "values": [{"measurement": "protein production", "result": "not failed"}]}
{"sequence": "MPSPVLIAIDASPASSTLLTLARRYCRPGEHELHVLLAIDSTFAVHEQPAPYTAEELEEYPAACQEQQHADHAVAEAVRELQQAGFASQGCMVAGLPVEAIVTKAQELNCELIIMGHRHLSRLGRLLDPSISAKVIDRVDMPVLV", "values": [{"measurement": "protein production", "result": "failed"}]}
{"sequence": "MDEAYKMRCDWYHHGELVSGGESESKFSQLNDEVVELYQAAEYLDEEFAGMVHLGEIVERDDKKEDEFLAKLADAETPLYPSCFNHSKLSAIMSLFTLKTKNGWSDKSHNDLLETLPEMLLEDNVLHSSLYEVKKFLKSFDMG", "values": [{"measurement": "protein production", "result": "failed"}]}
{"sequence": "MDLVKIDETLDDLQIKDIHIIQKKEGFRFGVDAVLLANYAKVKSNQTVIDLCSGTGIIPFIIQGKKSPRHITGIEIQEDMVQMANRTVLYNKFQEKIKFINEDIKNLAELKKLERVDVVTVNPPYKLRNSGIVNEFDKNAIARHEICCTLEDVIKAARTLLKDNGRLFMVHRPERLADILCLMREYKIEPKSIKMVYPSVNKAPNIVLIEGQRDGGAFLKWEKSLYIHKENGEYTEELNEIYGR", "values": [{"measurement": "protein production", "result": "failed"}]}
{"sequence": "MSTVPISGRSQIMLVQDSEILSSSALQYKQFLSKVKISKNATSTAQVRRVGQKVAAATMLYLKQNGLGDMASQMKWEFNVVEDKAVNAFCMPGGKIVVYTGLLKLVGSDAELATVISHEVSHAVARHSNERISQEYLRQMGGNILGAAVSNKSAALQTVIGQAYGIGSQVLITLPYNRKQEYEADKIGLVFMAMAGYNPNAAITFWQKMAAQGNGRVEFLSTHPSDANRIAAIRQYMPEAMKHYKSKLEHHHHHH", "values": [{"measurement": "protein production", "result": "not failed"}]}
{"sequence": "MEIFFTILIMTLVVSLSGVVTRVMPFQIPLPLMQIAIGALLAWPTFGLHVEFDPELFLVLFIPPLLFADGWKTPTREFLEHGREIFGLALALVVVTVVGIGFLIYWVVPGIPLIPAFALAAVLSPTDAVALSGIVGEGRIPKKIMGILQGEALMNDASGLVSLKFAVAVAMGTMIFTVGGATVEFMKVAIGGILAGFVVSWLYGRSLRFLSRWGGDEPATQIVLLFLLPFASYLIAEHIGVSGILAAVAAGMTITRSGVMRRAPLAMRLRANSTWAMLEFVFNGMVFLLLGLQLPGILETSLMAAEIDPNVEIWMLFTNIILIYAALMLVRFGWLWTMKKFSNRFLKKKPMEFGSWTTREILIASFAGVRGAITLAGVLSIPLLLPDGNVFPARYELVFLAAGVILFSLFVGVVMLPILLQHIEVADHSQQLKEERIARAATAEVAIVAIQKMEERLAADTEENIDNQLLTEVSSRVIGNLRRRADGRNDVESSVQEENLERRFRLAALRSERAELYHLRATREISNETLQKLLHDLDLLEALLIEENQ", "values": [{"measurement": "protein production", "result": "failed"}]}
{"sequence": "MTMNPLPLQKEAEKRSPRLNSPFKSLMRIHWWMALAYLIVFCTGTLMVNLERGQFLRSELYDFHKSIGILTMALLTWRIFTLLQVWWRKYTKRPPKLSLAWWRTFTLHLSLYVFMGVIPISGFLLSNSFKANNVRFFSITLPDIFPQNEAMVEIGRNAHFWLAYTFLIFIFIHMLTYWKVIRANWRRWVNFIGKFQQQT", "values": [{"measurement": "protein production", "result": "failed"}]}
{"sequence": "MSSATGSKIVVTGATGNVGTSVVRLLSEDPEVGTVLGLARRIPDWSPAKTEWAAVDLASEQSDLTSHFADADAVVHLAWAFQPTHDPATTWRTNVLGSIRVFEAVAAAGVPALVHASSVGAYSPGPKNHAVDESWPTHGWPDAAYCREKAYLERALDTFERDHPGIRVVRMRPAFLFKRESASEQRRIFGGRFLPGPAARPELLPFLPDVPGLRVQALHTDDAARAYRLAVRSADARGAFNLAAEPPVDAELLGELLGVRPVRLPRAAARSAIAAAWGMRLLPASPHLFDAVLRLPVMDCTRARVELGWGATRTATEVLEEFLRGLRQGAGADTEPMRGRKVG", "values": [{"measurement": "protein production", "result": "failed"}]}
{"sequence": "MRYSPRKQCYFALFFFAFVALCVGVIELLHQNQQDLQQERVQVEAKEQLSILRSNLEAVLMADIYKASTLATLITLLPNSEEEELSIAADRILNKSKHITVIGIAENDVISHIFPTQGNERVLGLDYRKVPAQWVQVQKAKDIQEIFIAGPVSLVQGGRGLIVRVPVFRDPPINKEYWGVISAVVDFDGLMRETGVFDFSYHYPLTIRGYDSGGEYGDMFFGDPNQTGKLYAKEHVHFPYGGWSMAAYAGGQLEQQISWFELNIVRIIGYPILIALSIALIVIYRLYIIADDRALHDELTHLPNRRYFMQSYKQQFEIAKRYKKRYSFALINIDLDRFKHINDTFGHDAGDKVLIATAERIKSSLRRSDMVARMGGDEFLVVVHNLGMEEHVQKLLQKLRLALCSTPVIYDEELIYLRVSIGYAIFDPQMTSPEQMMKIADERMYQQKHGGLEHHHHHH", "values": [{"measurement": "protein production", "result": "not failed"}]}
{"sequence": "MLLHLSTWQEVEAYLQQSKGIIFPIGSTEQHGPTGLIGTDAICAEAIAAGVGDATGAIVGPTINVGMALHHTAFPGTISLRPSTLIQVVRDYVTCLAKAGFSKFYFINGHGGNIATLKAAFSETYAHLEDLQIANAQQVQCQVANWFMCGSVYKLAKELYGDQEGSHATPSEVALTQYVYPEAIKQAPLSPEVASGHRIYSAADFRVRYPDGRMGSNPGLATPEHGKQFYDLAVKELSNGYLEFVNAD", "values": [{"measurement": "protein production", "result": "not failed"}]}
{"sequence": "MSLNDNNTILGFDVNLICDFFLNTERQGPGSPEVTLKALSFIDNLTNKSLIADLGCGTGGQTMILAQHVPGKITGIDFFPGFIERFNKNAEKLNLQNRVKGIVGSMDDLSFEKDSLDLIWSEGAIYNIGFERGLKEWRNYLKPGGYLAVSESVWFTDQRPAEIHDFWMSAYTEIDTVPNKVAQIQKAGYIPVATFILPENCWIEHYFAPQAKAEEIFRRKHAGSRIVEELITSNHHEAELYSKYKAYYGYAFFICKKGFSLREGHHHHHH", "values": [{"measurement": "protein production", "result": "not failed"}]}
{"sequence": "GGTSNEVAQFLSKENQVIVRMRGLPFTATAEEVVAFFGQHCPITGGKEGILFVTYPDGRPTGDAFVLFACEEYAQNALRKHKDLLGKRYIELFRSTAAEVQQVLNRFSSA", "values": [{"measurement": "protein production", "result": "not failed"}]}
{"sequence": "MDLLKNIFKGDKVIWIIFLCLCLISIIEVFSAASTLTYKSGDHWGPITQHSIILMVGAVVVVLMHNIPYKWFQVFPVFLYPISVVLLAFVTLMGVITGDRVNGAARWMSFMGLQFQPSELAKMAVIIAVSFILSKKQDDEGANPKAFKYIMILTGLVCMLIAPENLSTAMLLFGVVVLMMFIGRVAFKKLAMLLGGLALVGCLGAVFLLAIPKDTDIPFLHRFDTWKSRITNFTEKEEVPAAKFDIDKDAQIAHARIAIATSNVIGKAPGNSIQRDFLSQAFSDFIFAIIIEELGLVGGAFVVILYIWLLVRTGRIAQKCERTFPAFLVMGIALMLVSQAILNMMVAVGLFPVTGQPLPLISKGGTSTLINCAYIGMILSVSRYTAYLEEKKENPAPLLTQSEGNETIASEAQTAAEPTAEVLNSDAKFEE", "values": [{"measurement": "protein production", "result": "failed"}]}
{"sequence": "GGRRWNWVQSWPVWKYFKEYFPICLVKTQDLDPGHNYIFGFHPHGIFVPGAFGNFCTKYSDFKKLFPGFTSYLHVAKIWFCFPLFREYLMSNGPVSVSKESLSHVLSKDGGGNVSIIVLGGAKEALEAHPGTFTLCIRQRKGFVKMALTHGASLVPVFSFGENDLYKQINNPKGSWLRTIQDAMYDSMGVALPLIYARGIFQHYFGIMPYRKLIYTVVGRPIPVQQILNPTSEQIEELHQTYLEELKKLFNEHKGKYGIPEHETLVFK", "values": [{"measurement": "protein production", "result": "failed"}]}
{"sequence": "MSTKTVHYPWFKKEDIDAFFALFQNNLANFVIIAVTMIGLGFPASLVFGKVIPGVAVAVIVGNLYYAYMANRLAQKESRSDVTALSYGISTPVMFVFLFGILAPALALTGDPELAWKIGLAAAFLSGFIELLVSFTGNWVRKHLPRPAMLGALAGVAVTFIAGEMLFQVFSIPVVGLVALAIILLGVVGKVTLPFNIPPSLCAVIIGTVLAFVLGYQSANTLQDSLANIGLYPILPSLGAFEGFGYLFGPLVGLLAILLPITIYNAIETMNNVDAMAAAGDSYDVRECQAVDGVGTMIGAVFGGLFPTTVYIATVGSKWMGAGRGYSILNALVFAITAVTGVIAALSELIPLAAVAPILVFVGMSMVVTAFDPNDRKYYPAVALAMLPYVANYVMTRFNNNAGEVVQGISEGIVPLGQGAMFTAIILGAIAVCIIDKQFIKAAVFSLIGAGLSFAGFMHAPELSFNAAPDYSLGYLCIAILFSYCAFRKTSKEAVASPSTLSSKRVAS", "values": [{"measurement": "protein production", "result": "failed"}]}
